Measurements reported in the supplement of paper PMC9732359.
± gives the uncertainty stated by the source.

experiment: protein stability index of a GFP-peptide fusion (yeast GPS) (PSI 1-4); higher = more stable; sorted into four equal gates, so the index is relative within each strain; conditions: pdr5∆
Method in brief: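 For each peptide, the protein stability index sums the read frequency in every gate after multiplying it by the gate number. Read frequencies came from plasmids that were PCR-amplified from each gate and Illumina-sequenced, with reads assigned to strains by barcodes. The gates were four equal bins of GFP/Cherry fluorescence ratio applied to mid-log yeast in leucine-free medium carrying a pooled library of tiled 17-residue yeast protein peptides fused downstream of GFP on a Cherry-expressing plasmid.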

ENDAKKSKGDVDIKGED [NUT1] and ENDIEIKGPEFKFSGTV [YLR335W/NUP2] are within error of each other in protein stability index: 3.27 ± 0.2 for the first, 3.04 ± 0.12 for the second.

same assay, conditions: san1∆

First: EIMQQKFPATNVTTILD [ECM29]
Second: EIQPRANIQLDFPELKP [FAS2]
The protein stability index of the first is lower: 2.19 ± 0.063 for the first, 3.12 ± 0.076 for the second.

Compared with EIRRFQKSTELLIRKLP [HHT1], EIVNMVPSHVPQVLINR [SIR2] is higher in protein stability index: 1.87 ± 0.24 for the first, 2.53 ± 0.11 for the second.

Going from EIVRDILHTKESSNEAK [SIR4] to EKDAKINKLMEKDFQVN [SIR4], the protein stability index rises from 2.82 ± 0.06 to 3.3 ± 0.07.

EKDLEHWLQLAKGVYRP [POP1] and EKELKIFTDAGRVYRPL [RPB2] are within error of each other in protein stability index: 3.15 ± 0.041 for the first, 3.09 ± 0.063 for the second.

Compared with EKESDDGLLEYLEDIIG [SMC4], EKIFHYGHVFLGITGLA [PUP3] is lower in protein stability index: 3.15 ± 0.079 for the first, 1.15 ± 0.18 for the second.

Going from EKIMENKYPELLGKDNE [AAR2] to EKKLEDYCRILSDIETA [YGL172W/NUP49], the protein stability index falls from 3.24 ± 0.039 to 2.67 ± 0.11.

Going from EKLDVSRSSVCVKAIEA [YCG1] to EKPLTPLKYTKLIAAAE [SNF6], the protein stability index falls from 2.08 ± 0.079 to 1.22 ± 0.21.

EKRHKNVPVHVSPAFRV [RPS11A] and EKSTQLQQKHELDTASR [YGR119C/NUP57] are within error of each other in protein stability index: 2.9 ± 0.07 for the first, 2.85 ± 0.029 for the second.

First: EKTFLHLPCTIEAEEAE [RPN8]
Second: EKTMVKKNLGRLTRLWI [PRP8]
The protein stability index of the first is higher: 2.48 ± 0.12 for the first, 1.45 ± 0.14 for the second.

Compared with EKWISSKNSKLSIICVG [SIR3], EKWLLNQIPVTEHSKVT [SRB6] is higher in protein stability index: 1.37 ± 0.17 for the first, 1.99 ± 0.12 for the second.

Compared with ELALKTLSKTTDSSALT [PRE9], ELAQDPQTMEHYKQQIA [YCS4] is lower in protein stability index: 2.54 ± 0.065 for the first, 2.1 ± 0.1 for the second.

Compared with ELDQEYRSCETQDESEI [SMC4], ELGVSIYDFPGTPEATK [NUT2] is higher in protein stability index: 2.67 ± 0.19 for the first, 3.06 ± 0.078 for the second.

ELKEITSLPDWCQEAFP [BRR2] and ELKNELAKTKENYDAKI [YIL149C/MLP2] are within error of each other in protein stability index: 3.11 ± 0.064 for the first, 3.15 ± 0.052 for the second.

ELKYQRSLRATAEERVG [RPL15A] and ELLETVSLTKRKQEREI [YIL149C/MLP2] are within error of each other in protein stability index: 1.67 ± 0.19 for the first, 1.5 ± 0.19 for the second.

ELLIYKKSQCKKKTTLE [YIL149C/MLP2] and ELNDLKWGRNQPVNINL [YMR129W/POM152] are within error of each other in protein stability index: 2.95 ± 0.083 for the first, 2.83 ± 0.11 for the second.

ELNIIPRDLLRVIIQEL [PRP28] and ELPTQLALEIIVRPAKG [RRP46] are within error of each other in protein stability index: 1.38 ± 0.21 for the first, 1.49 ± 0.079 for the second.

First: ELQMRSFLKEGDLLNAE [RRP4]
Second: ELSIRDVTHTLGMLDDN [SMC4]
The protein stability index of the first is lower: 3.07 ± 0.087 for the first, 3.22 ± 0.049 for the second.

ELSKSRALQENGIIMNG [YMR153W/NUP53] and ELSVTGSAINHHRIFDS [YMR129W/POM152] are within error of each other in protein stability index: 2.64 ± 0.16 for the first, 2.91 ± 0.12 for the second.

Going from ELSVVLSGIIQDIYYLA [RRI2] to ELVRLLIIDEIHLLHDD [BRR2], the protein stability index falls from 2.02 ± 0.13 to 1.5 ± 0.1.

First: ELYEVDVLKVNTLVRPN [RPL25]
Second: EMEVDAEGEEVEVKAEI [RPN1]
The protein stability index of the first is lower: 2.72 ± 0.12 for the first, 3.55 ± 0.093 for the second.

ENDAKKSKGDVDIKGED [NUT1] and ENDIEIKGPEFKFSGTV [YLR335W/NUP2] are within error of each other in protein stability index: 2.95 ± 0.16 for the first, 3.07 ± 0.15 for the second.

same assay, conditions: ubr1∆

First: EIMQQKFPATNVTTILD [ECM29]
Second: EIQPRANIQLDFPELKP [FAS2]
The protein stability index of the first is lower: 2.45 ± 0.057 for the first, 3.26 ± 0.042 for the second.

First: EIRRFQKSTELLIRKLP [HHT1]
Second: EIVNMVPSHVPQVLINR [SIR2]
The protein stability index of the first is lower: 2.25 ± 0.12 for the first, 2.88 ± 0.054 for the second.

First: EIVRDILHTKESSNEAK [SIR4]
Second: EKDAKINKLMEKDFQVN [SIR4]
The protein stability index of the first is lower: 2.75 ± 0.059 for the first, 3.47 ± 0.055 for the second.

Compared with EKDLEHWLQLAKGVYRP [POP1], EKELKIFTDAGRVYRPL [RPB2] is higher in protein stability index: 3.1 ± 0.064 for the first, 3.34 ± 0.042 for the second.

Compared with EKESDDGLLEYLEDIIG [SMC4], EKIFHYGHVFLGITGLA [PUP3] is lower in protein stability index: 3.54 ± 0.1 for the first, 1.05 ± 0.074 for the second.

Going from EKIMENKYPELLGKDNE [AAR2] to EKKLEDYCRILSDIETA [YGL172W/NUP49], the protein stability index falls from 2.96 ± 0.045 to 2.55 ± 0.089.

Going from EKLDVSRSSVCVKAIEA [YCG1] to EKPLTPLKYTKLIAAAE [SNF6], the protein stability index falls from 2.11 ± 0.058 to 1.15 ± 0.2.

Going from EKRHKNVPVHVSPAFRV [RPS11A] to EKSTQLQQKHELDTASR [YGR119C/NUP57], the protein stability index rises from 2.75 ± 0.053 to 3.21 ± 0.031.

First: EKTFLHLPCTIEAEEAE [RPN8]
Second: EKTMVKKNLGRLTRLWI [PRP8]
The protein stability index of the first is higher: 2.48 ± 0.07 for the first, 1.67 ± 0.2 for the second.

Compared with EKWISSKNSKLSIICVG [SIR3], EKWLLNQIPVTEHSKVT [SRB6] is higher in protein stability index: 1.23 ± 0.073 for the first, 2.37 ± 0.057 for the second.

Compared with ELALKTLSKTTDSSALT [PRE9], ELAQDPQTMEHYKQQIA [YCS4] is lower in protein stability index: 2.73 ± 0.043 for the first, 2.4 ± 0.06 for the second.

Going from ELDQEYRSCETQDESEI [SMC4] to ELGVSIYDFPGTPEATK [NUT2], the protein stability index falls from 3.31 ± 0.091 to 3.04 ± 0.048.

ELKEITSLPDWCQEAFP [BRR2] and ELKNELAKTKENYDAKI [YIL149C/MLP2] are the same in protein stability index: 3.08 ± 0.046 for the first, 3.08 ± 0.076 for the second.

ELKYQRSLRATAEERVG [RPL15A] and ELLETVSLTKRKQEREI [YIL149C/MLP2] are within error of each other in protein stability index: 1.09 ± 0.054 for the first, 1.12 ± 0.036 for the second.

Compared with ELLIYKKSQCKKKTTLE [YIL149C/MLP2], ELNDLKWGRNQPVNINL [YMR129W/POM152] is lower in protein stability index: 3.19 ± 0.15 for the first, 2.56 ± 0.068 for the second.

Compared with ELNIIPRDLLRVIIQEL [PRP28], ELPTQLALEIIVRPAKG [RRP46] is higher in protein stability index: 1.15 ± 0.045 for the first, 1.84 ± 0.045 for the second.

ELQMRSFLKEGDLLNAE [RRP4] and ELSIRDVTHTLGMLDDN [SMC4] are within error of each other in protein stability index: 3.23 ± 0.08 for the first, 3.27 ± 0.097 for the second.

First: ELSKSRALQENGIIMNG [YMR153W/NUP53]
Second: ELSVTGSAINHHRIFDS [YMR129W/POM152]
The protein stability index of the first is higher: 3.17 ± 0.15 for the first, 2.93 ± 0.052 for the second.

Going from ELSVVLSGIIQDIYYLA [RRI2] to ELVRLLIIDEIHLLHDD [BRR2], the protein stability index falls from 2.6 ± 0.092 to 1.97 ± 0.063.

Compared with ELYEVDVLKVNTLVRPN [RPL25], EMEVDAEGEEVEVKAEI [RPN1] is higher in protein stability index: 2.87 ± 0.088 for the first, 3.39 ± 0.079 for the second.

ENDAKKSKGDVDIKGED [NUT1] gave a protein stability index of 3.2 ± 0.12.
